The record followed here is patent US12208130B2, “Treatment of women affected with polycystic ovary syndrome” (INSTITUT NATIONAL DE LA SANTE ET DE LA RECHERCHE MEDICALE …, priority 2017, dated 2025).

Where a SMILES comes first, the peptide text is derived from it. [ ]: non-standard residue; d: D form. dPhe(4-Cl) = N[C@H](Cc1ccc(Cl)cc1)C(=O)O; d2Nal = N[C@H](Cc1ccc2ccccc2c1)C(=O)O; dCit = NC(=O)NCCC[C@@H](N)C(=O)O; d3Pal = N[C@H](Cc1cccnc1)C(=O)O

The assay has as its system C57BL6/J (B6) dams and their female offspring. The experiment in a line: Plasma testosterone, LH and LH pulsatility in adult diestrus female offspring. It counts as in vivo, mouse. The protocol: FIGS. 3A-3J-4. Prenatal AMH treatment leads to hyperandrogenism and elevation in LH secretion/pulsatility. (FIG. 3A) Anogenital distance (AGD) was measured over post-natal days (P) 30, 35, 40, 50, and 60 in adult female control (n=6-14), PAMH (n=11-19), PAMH+GnRH antag (n=10), and GnRH antag (n=4) mice. […] One-way ANOVA and Tukey's multiple comparison post hoc test, F(19-183)=130.1, ***P<0.0001 among treatment groups and ages (P30, F(3, 43)=84.48, *P<0.05, ***P<0.0001; P35, F(3, 43)=116.9, *P<0.05, ***P<0.0001; P40, F(3, 43)=207.5, *P<0.05, ***P<0.0001; P50, F(3,27)=72.69, ***P<0.0001; P60, F(3,27)=110.5, ***P<0.0001). Bars from left to right in each group: Control, PAMH, PAMH+GnRH antag, GnRH antag. (FIG. 3B) Plasma testosterone was measured in adult females (P60) in diestrus. […] One-way ANOVA and Tukey's multiple comparison post hoc test, F(2,12)=28.67, ***P<0.0001. Bars from left to right: Control, PAMH, PAMH+GnRH antag. (FIG. 3C) Plasma LH was measured in adult females (P60) in diestrus. […] One-way ANOVA and Tukey's multiple comparison post hoc test, F(2,24)=257.3, *P<0.05, ***P<0.0001. Bars from left to right: Control, PAMH,
PAMH+GnRH antag. (FIG. 3D) Schematic representation of tail-tip blood sampling in adult diestrus female mice (3-4 months old). (FIG. 3E) Tail blood was collected every 10 min for 2 h and LH measured from 10 a.m-12 p.m in adult (P60) diestrus females (Control, n=8; PAMH, n=10; PAMH+GnRH antag, n=9; One-way ANOVA and Tukey's multiple comparison post hoc test, F(2,24)=57.06, *P<0.05, ***P<0.0001). Bars from left to right: Control, PAMH, PAMH+GnRH antag. (FIGS. 2F-1, 2F-2, 2F-3) Representative graphs for LH pulsatility over 2-hr in one female adult (P60) mouse of each treatment. Asterisks in (FIG. 3F) indicate the number of LH pulses/2-hr. (FIG. 3G) Mean circulating testosterone and LH levels were analyzed in pregnant PBS-treated (n=4) and AMH-treated (n=4) dams at embryonic day (E) 19.5 of gestation. […] (FIG. 3H) Relative mRNA expression of placental Cyp191a (aromatase) in control (n=4) and AMH (n=4)-treated pregnant animals at E19.5. Cyp191a expression in the placenta is higher in AMH-treated pregnant dams as compared to control-treated pregnant dams (Unpaired Student's t-test, t(6)=5.414, **P<0.005). Values are expressed as relative to the mean of each treatment. All values are expressed as mean±s.e.m. (FIGS. 3I-1, 3I-2, 3I-3, 3I-4) Dams were injected from E16.5 to E18.5 with either PBS (vehicle, n=9-11), AMH (n=8-10), AMH+GnRH antag (n=5) and trunk blood was collected at E19.5 for hormonal measurements by ELISA. Data were combined from at least two independent experiments. In FIGS. 3I-1, 3I-2, 3I-3, 3I-4: left bar: vehicle; middle bar: AMH; right bar: AMH+GnRH antagonist. […]

The mark [1] stands for this setting: dams i.p. 0.12 mg/Kg/d E16.5-E18.5, adult female offspring in diestrus vs control.

`CC(=O)N[C@H](Cc1ccc2ccccc2c1)C(=O)N[C@H](Cc1ccc(Cl)cc1)C(=O)N[C@H](Cc1cccnc1)C(=O)N[C@@H](CO)C(=O)N[C@@H](Cc1ccc(O)cc1)C(=O)N[C@H](CCCNC(N)=O)C(=O)N[C@@H](CC(C)C)C(=O)N[C@@H](CCCNC(=N)N)C(=O)N1CCC[C@H]1C(=O)N[C@H](C)C(N)=O` [Cetrorelix acetate, Ac-D-2Nal-D-Phe(4-Cl)-D-3Pal-Ser-Tyr-D-Cit-Leu-Arg-Pro-D-Ala-NH2] (Ac-[d2Nal][dPhe(4-Cl)][d3Pal]SY[dCit]LRP[dA]-NH2): the “PCOS-like neuroendocrine traits in the offspring” value (prenatal co-treatment of AMH with the GnRH antagonist) is given as “prevented the appearance”.

B1: proAMH: AMH proprotein (Origene Technologies, Cat # TP308397), injected prenatally 0.12 mg/Kg/d (protein, UniProt P03971 25-560, looked up)
pro-form: LRAEEPAVGTSGLIFREDLDWPPGSPQEPLCLVALGGDSNGSSSPLRVVGALSAYEQAFLGAVQRARWGPRDLATFGVCNTGDRQAALPSLRRLGAWLRDPGGQRLVVLHLEEVTWEPTPSLRFQEPPPGGAGPPELALLVLYPGPGPEVTVTRAGLPGAQSLCPSRDTRYLVLAVDRPAGAWRGSGLALTLQPRGEDSRLSTARLQALLFGDDHRCFTRMTPALLLLPRSEPAPLPAHGQLDTVPFPPPRPSAELEESPPSADPFLETLTRLVRALRVPPARASAPRLALDPDALAGFPQGLVNLSDPAALERLLDGEEPLLLLLRPTAATTGDPAPLHDPTSAPWATALARRVAAELQAAAAELRSLPGLPPATAPLLARLLALCPGGPGGLGDPLRALLLLKALQGLRVEWRGRDPRGPGRAQRSAGATAADGPCALRELSVDLRAERSVLIPETYQANNCQGVCGWPQSDRNPRYGNHVVLLLKMQVRGAALARPPCCVPTAYAGKLLISLSEERISAHHVPNMVATECGCR
modifications: pro-form
notes: AMH proprotein (Origene Technologies, Cat # TP308397), injected prenatally 0.12 mg/Kg/d
For B1, under setting [1], the “plasma LH” value was “increased” and the plasma testosterone result was “increased”. In addition, the “LH pulse frequency / pulsatility” value (dams i.p. 0.12 mg/Kg/d E16.5-E18.5, adult female offspring in diestrus, tail blood every 10 min for 2 h) is listed as “constitutively high LH pulsatility”.
